Consider 1 sequence from paper PMC12421842.

For this data set, the target named is T1, HicB (HicB-His) (Neisseria gonorrhoeae FA1090) (UniProt Q5F6D2).
T1 sequence: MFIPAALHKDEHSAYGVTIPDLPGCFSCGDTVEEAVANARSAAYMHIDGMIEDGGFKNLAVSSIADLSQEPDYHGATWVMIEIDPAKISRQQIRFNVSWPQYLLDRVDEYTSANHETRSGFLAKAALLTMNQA
The data set is described as follows: competition. The settings on record: EMSA: 20 mM HEPES pH 7.6, 1 mM EDTA, 10 mM (NH4)2SO4, 1 mM DTT, 0.2% Tween-20, 30 mM KCl, 1.25 ng/uL calf thymus DNA, 30 min at 30 C. On the technique in general: Mobility shift assays separate free from complexed probe on a gel.

Regarding “TTCACCCTTGCCTGTGCTGCCAAAGCAGCCATCGGCGGTTTTGCTTTCTGTTCCACTTTCCGTCGCGTTACCGCGCCCGGCCGTTAACCGGCATTCTACCCTGCGGAGCCCGGACTTTCCTCCCCGTAT (double strand) [rnpB fragment]”, the binding entry was “no binding”.
